# Data taken from the DeepSol protein solubility set.
# Assay: soluble on expression in E. coli; label from the status in PepcDB or PDB records
row,Sequence,soluble on expression in E. coli
1,GCSDGGREALVAAQRYPDDFNGIIAGAPALNFQVQKTLYHGWMARSNIGPDGKPILLASRLPLLHKAVLAKCDVLDGQIDGLIADPRLCNFDPASVQCTSSVDTTNCLTQQEVAVVKRFYEGPKDPDSGERLTVGGPQPGSELGWAGVFVPITAEQTVYSEKAASEAIRNMVFENNPVAGFDLSTLRFDKSTFDKLRPLHPLYDATNPDLAPFASRGGKLILWHGWADPNVSPLNTLAYHEAVEAKLGKARTEAFESLYMLPGVYHCGAGEGPSVIDLLTPMMAWVESNHAPD,not soluble
2,MGSDKIHHHHHHMKKTIILSDENYYSQEADLAYMSVSQYKKFLECEAAALAKLKGEWTPENDPKALLVGNYVHSYFESPEIHEAFKEENKSKMFSSRKPFGLLKDFQIAEQMIERLKQEEAFLNIYQGEKEVIVTGEIGGAMWKGKIDCLNLEEKYFVDIKTTKDMHEKKWDERLNRKANFIERFGYVLQMAVYCELLRQQYDKIFLPLIAAVSKQTPSEAKLITLSEEKMIYELEELKENIEHVVRVKNGEEEPVSCGICEYCRGHNKITNFTSMDDL,not soluble
3,MGSDKIHHHHHHLDVDTGKLQSLAASRYGARGARAVDDWLQLLRNDTSASEANQLARVNAFWNQRVLSGEDTHIWGRADYWATPLETLGKGAGDCEDYVIGKYFSLISLGVPTEKLRFIYVRARIGGPYSNQQIAHMVLGYYPTPNAVPLVLDSLISTIMPANERRDLTPVFSFNADGVYVDGKQASPVDRLSRWRDLLLRMEREGLRP,not soluble
4,MDHTVLIALLLAFCSTASAVDSEGTDFVFAFVRNANPNITNQILSATVLNQNAQDCKFTLTYRPDYRKATSPENITVTVSANSAVEVPVLSWYGWNYANENLQDDVFLTLTGFSTCPVTVLANNYDNVTGQGDTYMVLPLTWGSTSLTFSLPPAVLSTDQQYEQIYVLPTTPGVTKVSVFEIGNAASVYTFNATFGNAPAAYIGARTPDARPRTYHVMSDKNVLVVAGVTCAGADANSCDHVAYMPHPPPSSDCYTYDYYDDDHVSYLPTTSQFFTDIPGTCSVGQNITRTLNDGVSYTITIKPQMESPLWSIKTTNANQLAVAFHNGGSNIHIARYYDGTKFNSRGAFAATSPSMTQFHNLNTPFFTRNANDTIEIYCTVLSCSSITIDGVKIQITDTKVVQKVDDISYYIFVNTIANPGYHQISLKQQGSYAFFVYGKNKLYSYGYEGGANKPTVVLAPPTTPGPTFYPVTTVSTMSPPTTVTVPTTPTPVPTTTNTPPANPTTATPTTVGTMTPSTGTTTVPVPTTTGSPTTQTTAPVTKPTVPSSTTQTAPPVTTPTSQPPVTTTSLLTTLTTPTVPVTTTVVPSSATVPTTPPTTVTVAATTTSKAPVVTTSPTLAPTSPTKLPTSPPSTVGTSPTAPANLTTPTTAPVNPTSSTTAPTAPVNPTSPTTAPTVPPVTTTTPTTTTSTTTTTTTTTTTTQTTPTTPVVTTPSTITPTTRPVTQPASQPATQPATTPTTTIPTTTQFSSAVSVALPVVLTMFFALF,not soluble
5,MGSDKIHHHHHHMPGLPPPAVEPAVTSIKQEDLIQSVADALQYISYYHPVDYIKNLSAAYEREESPAAKDAIAQILINSRMCAEGHRPICQDTGIVTVFLEIGMNVRWDDATMGVEDMVNEGVRRAYNHPDNKLRASVLADPAGKRANTKDNTPAVVSTKIVPGDHLEVIVAAKGGGSEAKSKFAMLNPSDSIVDWVLKTVPTMGAGWCPPGMLGIGIGGTAEKAMLLAKEALMEPIDIVDLQARGASNRAEELRLELYEKVNALGIGAQGLGGLTTVLDIKVKDYPTHAANLPVALIPNCAATRHAHFTLDGSGPVMLDPPSLEDWPKLTYNPTNARRVNLDTITREEVASFKPGEVVLLNGKLLTGRDAAHKRMIDMLNRGETLPVDFTNRFIYYVGPVDPVRDEVVGPAGPTTATRMDKFTRQMLEQTGLLGMVGKSERGDAAIDAIRDNKAVYLMAVGGSAYLVSKAIKAARVLAFEDLGMEAIYEFEVKDMPVTVAVDSTGESVHKTGPRLWQSRIGKIPVVVE,not soluble
6,MCFTKKSTKTPPEPISKDSADKKKKTTIKKGKKFPMMNMIVKNKKNEVQVEKKPEEVPEQNKSVKDQTKKEEVKVVEEDKVEKKVEQKKPIINRPNCVAINPRSATSGKKNKYKFKYGQIDQQELSINNDKTEYLENAQLTKLMSHADVRALMGGQFAQGENADTNNCQDTVEEVDSEMLEIAFSPLLAVIPREDERVYGAFVHPTEQKKNAEA,soluble
7,MKPRPQSDAVDNEGPTPLSKGRRHLAMRLDDAWLGFQTRLAIRRGRVETVIPYTGYGSTSWVRVLARIVRSDPRDAAGHTNPLQESMRGWRNFTSAPVAHASVQVTIDGTVHDVVADRGGVVDARIPVALDAGWHTITLRSGESETVEAPVEIVADDAVFGVVSDIDDTVMVTALPRPFLAAWNTFVLNEHARTPTPGMAVLYERIARTAPSAPVLYLSTGAWNVAPTLSRFLSRNLYPAGPKLLTDWGPTPDRWFRSGQEHKRTSLERLAEEFPNIKWLLVGDDGQHDEAIYSEFAQRHPASVRAIAIRQLSAGEAVLAGGRSKSGGQPTPGVPWIYAPDGAGMSAQLEELGIIRNEVRSADDPEEGEVTTGSDLEHHHHHH,soluble
8,MGHHHHHHSHMRRAALRLCALGKGQLTPGRGLTQGPQNPKKQGIFHIHEVRDKLREIVGASTNWRDHVKAMEERKLLHSFLAKSQDGLPPRRMKDSYIEVLLPLGSEPELREKYLTVQNTVRFGRILEDLDSLGVLICYMHNKIHSAKMSPLSIVTALVDKIDMCKKSLSPEQDIKFSGHVSWVGKTSMEVKMQMFQLHGDEFCPVLDATFVMVARDSENKG,not soluble
9,MFTPIDQAIEHFKQNKFVIVMDDAGRENEGDLICAAENVSTEQMAFLVRHSSGYVCAPMTNAIADKLDLPLLRTGMKFESNDDDRHGTAYTITVDVAQGTTTGISAHDRSMTCRALADSSSTPKSFLKPGHICPLRAADGGVLQRRGHTEAGVDLCKLSGLSPVAVIGELVNDDEQGTMMRLNDCQAFGKKHGIPLISIEELAQYLKK,soluble
10,SEIESDPNDGHHHHHRRLHLDLSVDERSPRHGISELLQKLRPEWKPDDIQIKVFTEGITNQLMGCYVGSMTRDPVLLVRVYGQMTELFMDREKEMEMFRVLHKHGCGPQLYCSFNNGICYEFVRGVVLDDTLLHQPSVYRLIATEMGKIHSIKSGDSGARSAVTPVLWSRLSQFLNLLQSADDPEQQRSSADGETPSLEIIMREMEELKSHLARINSPVVLCHNDLLTKNVIYNQEEGAVKFIDYEYADFNYQAYDIGNHFNEFAGIDNVDSSLYPSDELQFDWLSAYLESFKRCSTGDSAVTQTEVQELYEQVCQFSLVAHLFWCLWALLQAKHSTIDFDFQRYARARFNYYFEKKREFCGLTPP,soluble
11,MGSDKIHHHHHHMSEFYGAQHRQWQEHFDGVAMADRVRELIVLPSIPEEHAGFIGSRDFFFLSTIDHRGFPTCSYKGGQPGFVKILDDTTLAFPSLDGNSMYLSMGNLSLNPKIGMLFIDFETPHRIRVHGTASVKPDDTLLAEYQEAELIVRIKIEEIFVNCPRYIHKHQRVQHSPYVPQAGCTTRTPQWKRLDSVQDVLRQPDLEKVSRMGGPITIEEYMELVLQGDA,not soluble
12,HGPEGTVEIETVKLARSVFSKLHEICCSWVKDFPLRRRPQLYYETSIHAIKNMRRKMEDKHVCIPDFNMLFNLEDQEEQAYFAVFDGHGGVDAAIYASIHLHVNLVRQEMFPHDPAEALCRAFRVTDERFVQKAARESLRCGTTGVVTFIRGNMLHVAWVGDSQVMLVRKGQAVELMKPHKPDREDEKQRIEALGGCVVWFGAWRVNGSLSVSRAIGDAEHKPYICGDADSASTVLDGTEDYLILACDGFYDTVNPDEAVKVVSDHLKENNGDSSMVAHKLVASARDAGSSDNITVIVVFLRDMNKVRASSPSPL,soluble
13,MLKQSMHSFVLLYPNVLLEGWNVEKVSERYEGEKWGTFWFQVVTPTGMFRVKEFFLDIMEPVFPDSCISQAKGDCFQYKGLVYWKGINYKGKESYVTSIWKTQVEISVDHGYVNQDEMERFLFELQPVNMELGKTILHTSFHLLSFQAKRSEMGEIGRCREWNAPDDVSYVNLLIHEKLNWKLESVGFGNDETQYVYWDEVNKLYALWVCRHKNKAYYPISSWTMNYGPKQIINGLEFYSHPNRGTVVYEDLGNEQIAYVFRGNPCTNFEQVKELFACL,not soluble
14,MAHHHHHHMSEENNIRKGPSFVFHDIKKKRMREIILMCNKKKQKKMLLKSLNIKFIYEEKNKKRVKIHVDNFLPVSINSDMEIIKKYKEILYDDNYCNIYDINKLKIGKMKKILKDFFYDIFLFCKYIFYKFIYKCQNIINLFLEYKQIMLSHCINRVPYFIKVFSFSSLHILLKYSIRSFFKNYSFYKYIFTPNYKICFLCIHKNSYYSEIEKEDTSQICFDDVSTCQEINILGSEEYLRGLVTSSVGFIDNYDDKNRGNNFLEIFQKHMNIFDIKKDDVHFKINKYEQRIDIEKAFSHIKNNILQKYDERRREKKKDNDKLIRRVQNMYDDVENKIMSSLKKILDITNYDEEREKC,soluble
15,MGSDKIHHHHHHMLTTDNQLIRLSQGQLNLLETCPRKFQHTHLEQLNSPLDPDHTDKLTLGSRFHLLMQQQEMGLPIDSFLQADTQLQNWMSGFANAAPEILTPATDRQTFRESEHYRTLQFQDYLLTVIYDLLIADHQQAQIFDWKTYPKPPDKRKLAQNWQTRLYMYVLAETSQYSPENISMTYWFVQSQGKPQNIQFTYSHNLHTQTAKKLHQLLDQLTKWLNNYQQGTLFPQVPVNSKACDYCQFAKKCDRLLPTVGHKLNSSESNSLEITAQAINKSFPALDAIEEVSI,not soluble
16,MGLQTYNAKRSFDKTPEPKGTKAEKPGSSFVIQKHDARRLHYDFRLEMDGVLKSWAVTRGPSLDPEDKRLAVHVEDHPLSYGDFEGVIPKGQYGGGTVIVWDRGIWQPIGDAGKGYRKGHLEFELEGEKLKGRWHLVRMHGKPGESRENWLLIKGDDEEARHLEHHHHHH,soluble
17,MNADTADEEITKLLEFLIEQTKDAFEPMRALAVFESFGQLEEDPLDRKTYHYRFHQKIAPNMDSWNNYSIESRIRLMFALAGRVRDNFLESIQSQGTVELDEKNRICEYISNDGTLTLKGDHSDSARWARRITSTTNPTKSAAFAEKFMNFLVEKTKNVVEPVSVGGIYEEFSQIDGFGLSPAAYRTRFHINIVPEINEWNSYSIEERIRLLMALGALVPEDFLERIEAEGTVDLDEKGRILKYSSNDGNLNLDKRNIATANRRNSTAAHRKRSLDRDSESGSAKNARAVKSEPKSKPQSDLHYSSESDTDDVEFVESLPGKPKLEPIDYDYDQYFNRDVSYNNYDQEEVENRNVRLSIASSMPSLESNVIKLNDFLKEVRKFLCFLEISELDELKHQIKESVVQTAGANENLEISDLCTLLDAFFFSINQKTRSTIPNDSTMPVNVFLIKFKCFLLGMESPEFLDLQEKVQRKLDESDITEKILQLSDIQHAVQYLFFSVSH,not soluble
18,MDVKMKGIVRVVPYDPEWKTEFLKIKAMIVDCAGDLIIDVVHVGSTAIEGLASKPIIDIDVVIDSYYVFPAVKDRLAKIGFEHEGNLGVEGREAFKRTFVDDFMPYHLYICPKDGKGYLEHIAFRNYLRDHPEAVKAYGELKMRLAEQFRTDITSYVNAKREFVQNVLKKINS,soluble
19,MFHCPLCQHAAHARTSRYITDTTKERYHQCQNVNCSATFITYESVQRYIVKPGEVHVVRPHPLPSGQQIMWM,soluble
